In the test the target is T1, IGF1R (IGF1 receptor), antigen coated on the ELISA plate (UniProt P08069 31-932, limits assumed).
T1 construct: Construct not described; It may be the same histidine-tagged reagent as m8
Description: ELISA, antigen coated at 2 µg/mL, antibody serially diluted, anti-kappa or anti-lambda HRP detection (FIG. 10). The protocol: The absorbance at 450 nm was measured using a microtiter plate reader.

T1 sequence (P08069 31-932 limits assumed): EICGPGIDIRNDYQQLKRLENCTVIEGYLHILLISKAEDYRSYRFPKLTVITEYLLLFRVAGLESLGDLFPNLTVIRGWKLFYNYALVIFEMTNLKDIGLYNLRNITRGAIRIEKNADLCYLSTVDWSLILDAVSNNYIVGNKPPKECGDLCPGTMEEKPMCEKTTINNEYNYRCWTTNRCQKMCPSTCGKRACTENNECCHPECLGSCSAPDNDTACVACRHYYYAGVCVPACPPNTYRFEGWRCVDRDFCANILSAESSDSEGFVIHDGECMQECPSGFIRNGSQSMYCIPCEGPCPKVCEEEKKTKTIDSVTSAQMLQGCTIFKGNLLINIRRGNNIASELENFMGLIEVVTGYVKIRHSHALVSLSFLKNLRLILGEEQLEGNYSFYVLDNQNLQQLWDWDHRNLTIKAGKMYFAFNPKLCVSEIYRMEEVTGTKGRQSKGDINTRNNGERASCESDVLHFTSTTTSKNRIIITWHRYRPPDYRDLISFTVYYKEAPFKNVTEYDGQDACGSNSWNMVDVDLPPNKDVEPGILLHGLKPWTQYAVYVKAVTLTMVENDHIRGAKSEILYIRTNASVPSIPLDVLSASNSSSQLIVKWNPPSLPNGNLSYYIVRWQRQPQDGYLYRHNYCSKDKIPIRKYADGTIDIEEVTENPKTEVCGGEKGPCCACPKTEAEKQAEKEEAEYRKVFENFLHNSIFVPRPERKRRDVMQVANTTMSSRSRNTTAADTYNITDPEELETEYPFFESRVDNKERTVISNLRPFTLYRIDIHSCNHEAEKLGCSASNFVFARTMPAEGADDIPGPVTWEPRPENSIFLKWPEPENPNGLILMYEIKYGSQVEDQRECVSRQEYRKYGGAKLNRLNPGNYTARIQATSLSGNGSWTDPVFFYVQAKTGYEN

B1: anti-EGFR conventional antibody (monospecific bivalent, kappa light chain; parental arm of iMab-EI) (antibody, V domains shown)
VH: QVQLQESGPGLVKPSETLSLTCTVSGGSVSSGDYYWTWIRQSPGKGLEWIGHIYYSGNTNYNPSLKSRLTISIDTSKTQFSLKLSSVTAADTAIYYCVRDRVTGAFDIWGQGTMVTVSS
VL: DIQMTQSPSSLSASVGDRVTITCQASQDISNYLNWYQQKPGKAPKLLIYDASNLETGVPSRFSGSGSGTDFTFTISSLQPEDIATYFCQHFDHLPLAFGGGTKVEIK
notes: Conventional IgG with kappa light chain; constant regions not specified; also called anti-EGFR antibody; parental arm antibody
Regarding B1, the binding result was “no binding”.

For the origin of these results see patent US20140155581A1 (AstraZeneca / MedImmune, published 2014).
